Source: publication PMC6888877, “Deconstructing and repurposing the light-regulated interplay between Arabidopsis phytochromes and interacting factors” (Communications Biology, 2019)

Columns and labels:
[1] = target: T1, AtPIF6 (1-100)-EYFP, P6.100 (Arabidopsis thaliana, UniProt Q8L5W7 1-100); assay: cell-based or functional assay
T1 sequence (looked up): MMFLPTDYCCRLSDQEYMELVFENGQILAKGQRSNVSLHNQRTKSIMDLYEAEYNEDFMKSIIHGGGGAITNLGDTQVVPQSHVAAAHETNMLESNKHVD

[2] = target: T2, AtPIF3 (1-100)-EYFP, P3.100 (Arabidopsis thaliana, UniProt O80536 1-100); assay: cell-based or functional assay
T2 sequence (looked up): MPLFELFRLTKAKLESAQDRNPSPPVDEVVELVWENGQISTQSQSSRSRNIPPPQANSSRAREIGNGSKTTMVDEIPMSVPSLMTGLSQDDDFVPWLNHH

P6.A-EYFP = target: T3, P6.A-EYFP (Arabidopsis thaliana); assay: cell-based or functional assay
T3 chain: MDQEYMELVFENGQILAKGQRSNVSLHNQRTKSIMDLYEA

P3.A-EYFP = target: T4, P3.A-EYFP (Arabidopsis thaliana); assay: SEC; 50 µM AtPhyB PCM + 10 µM AtPIF-EYFP (5:1), illuminated with red light (650 nm, 2 min; results say 640 nm), Pfr state; Superdex 200 Increase 10/300 GL; 67 mM sodium phosphate pH 8.0, 200 mM NaCl; details: both partners purified
T4 chain: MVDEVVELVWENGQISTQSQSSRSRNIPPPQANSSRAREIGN

P6.AAfus-EYFP = target: T5, P6.AAfus-EYFP (Arabidopsis thaliana); assay: as above; details: both partners purified
T5 chain: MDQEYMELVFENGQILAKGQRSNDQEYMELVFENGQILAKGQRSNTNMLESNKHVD

P6.AA-EYFP = target: T6, P6.AA-EYFP (Arabidopsis thaliana); assay: as above; details: both partners purified
T6 chain: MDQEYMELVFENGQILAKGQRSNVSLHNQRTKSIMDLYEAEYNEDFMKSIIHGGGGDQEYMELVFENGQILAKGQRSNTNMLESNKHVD

normalized SEAP reporter expression in CHO-K1 cells, split transcription factor (AtPhyB PCM-VP16 + E-protein-AtPIF variant), red light against darkness [1]: 4 fold
normalized SEAP reporter expression in CHO-K1 cells, split transcription factor (AtPhyB PCM-VP16 + E-protein-AtPIF variant), red light against darkness [2]: 10 fold
normalized SEAP reporter expression in CHO-K1 cells, split transcription factor (AtPhyB PCM-VP16 + E-protein-AtPIF variant), red light against darkness (P6.A-EYFP): 43 fold
stoichiometry N (P3.A-EYFP): 1
stoichiometry N (P6.AAfus-EYFP): 1
stoichiometry N (P6.AA-EYFP): 1
B1: Arabidopsis thaliana phytochrome B photosensory core module (AtPhyB PCM) (domain or fragment, UniProt P14713 1-651, looked up)
chain: MVSGVGGSGGGRGGGRGGEEEPSSSHTPNNRRGGEQAQSSGTKSLRPRSNTESMSKAIQQYTVDARLHAVFEQSGESGKSFDYSQSLKTTTYGSSVPEQQITAYLSRIQRGGYIQPFGCMIAVDESSFRIIGYSENAREMLGIMPQSVPTLEKPEILAMGTDVRSLFTSSSSILLERAFVAREITLLNPVWIHSKNTGKPFYAILHRIDVGVVIDLEPARTEDPALSIAGAVQSQKLAVRAISQLQALPGGDIKLLCDTVVESVRDLTGYDRVMVYKFHEDEHGEVVAESKRDDLEPYIGLHYPATDIPQASRFLFKQNRVRMIVDCNATPVLVVQDDRLTQSMCLVGSTLRAPHGCHSQYMANMGSIASLAMAVIINGNEDDGSNVASGRSSMRLWGLVVCHHTSSRCIPFPLRYACEFLMQAFGLQLNMELQLALQMSEKRVLRTQTLLCDMLLRDSPAGIVTQSPSIMDLVKCDGAAFLYHGKYYPLGVAPSEVQIKDVVEWLLANHADSTGLSTDSLGDAGYPGAAALGDAVCGMAVAYITKRDFLFWFRSHTAKEIKWGGAKHHPEDKDDGQRMHPRSSFQAFLEVVKSRSQPWETAEMDAIHSLQLILRDSFKESEAAMNSKVVDGVVQPCRDMAGEQGIDELGA
modifications: covalently incorporated bilin chromophore (PCB; co-expressed Synechocystis sp. heme oxygenase 1 and pcyA)
notes: A. thaliana phytochrome B, photosensory core module (PAS-GAF-PHY with N-terminal extension), residues 1-651; Pr state (far-red light or dark) and Pfr state (red light; Pfr/Pr about 0.56/0.44) are told apart by the assays; In the cell experiments other constructs were used (PCM-VP16; PCM 1-650 with CAAX); source: E. coli BL21(DE3), plasmid pDG282, purified (Ni-NTA IMAC, anion exchange)
